Measured values taken from patent publication US20070148180A1, “Peptide-immunoglobulin-conjugate” (priority 2005, published 2007).
No end group written: not given here.

Legend:
live NL-Bal viruses = type: cell-based, HIV-1; conditions: live NL-Bal virus, JC53-BL cells, luciferase activity
[1] = biological target: biotinylated HR1 peptide Biotin-T-2324 (HIV-1 gp41 HR1) (Human immunodeficiency virus type 1 group M subtype B, UniProt P04582, G556A); assay: Binding affinity of HR2 containing polypeptides to HR1 by Surface Plasmon Resonance (BIAcore 3000); conditions: SPR, 25° C., immobilized HR1 peptide Biotin-T-2324, 1:1 Langmuir model
[2] = system: pseudotyped NL-Bal viruses; conditions: pseudotyped NL-Bal virus, single-cycle, JC53-BL cells

Procedure for HIV-1 JR-CSF virus: Human PBMC were isolated from buffy-coats (obtained from the Stanford Blood Center) by a Ficoll-Paque (Amersham, Piscataway, N.J., USA) density gradient centrifugation according to manufacturer's protocol. Briefly, blood was transferred from the buffy coats in 50 ml conical tubes and diluted with sterile Dulbecco's phosphate buffered saline (Invitrogen/Gibco) to a final volume of 50 ml. Twenty-five ml of the diluted blood was transferred to two 50 ml conical tubes, carefully underlayerd with 12.5 ml of Ficoll-Paque Plus (Amersham Biosciences) and centrifuged at room temperature for 20 min. at 450×g without braking. The white cell layer was carefully transferred to a new 50 ml conical tube and washed twice with PBS. To remove remaining red blood cells, cells were incubated for 5 min. at room temperature with ACK lysis buffer (Biosource) and washed one more time with PBS. PBMC were counted and incubated at a concentration of 2-4×10^6 cells/ml in RPMI1640 containing 10% FCS (Invitrogen/Gibco), 1% penicillin/streptomycin, 2 mM L-glutamine, 1 mM sodium-pyruvate, and 2 μg/ml Phytohemagglutinin (Invitrogen) for 24 h at 37° C. […] Virus production was measured at the end of infection by using p24 ELISA (HIV-1 p24 ELISA #NEK050B) using the sigmoid dose-response model with one binding site in Microsoft Excel Fit (version 3.0.5 Build12; equation 205; Microsoft).

Molecule | Antiviral activity % Inhibition at 20 μg/mL (live NL-Bal viruses) [%] | KA [1] [M⁻¹] | Kd [1] [pM] | ka [1] [M⁻¹ s⁻¹] | kd [1] [s⁻¹] | Antiviral activity % Inhibition at 20 μg/mL [2] [%] | Antiviral activity IC50 (HIV-1 JR-CSF virus) [µg/mL] | Antiviral activity IC50 ([2]; 3 day incubation, luciferase activity) [µg/mL]
4976/4818: anti-IGF-1R IgG1: light chain 4976 with T-651 N-terminal (including variable domain), wt heavy chain 4818 (QIWNNMTWMEWDREINNYTSLIHSLIEESQNQQEKNEQELLGGGGSGGGGSGGGGSGAS; also: fused N-terminally to light chain of anti-IGF-1R IgG1) | 38 | 2.63e+10 | 38 | 923000 | 3.51e-05 | 17 |  | 
CC[C@H](C)[C@H](NC(=O)[C@H](C)NC(=O)[C@H](CCCNC(=N)N)NC(=O)[C@H](CC(=O)O)NC(=O)[C@H](Cc1c[nH]c2ccccc12)NC(=O)[C@H](C)NC(=O)[C@H](CCC(=O)O)NC(=O)[C@H](Cc1c[nH]c2ccccc12)NC(=O)[C@@H](NC(=O)[C@@H](NC(C)=O)[C@@H](C)O)[C@@H](C)O)C(=O)N[C@@H](C)C(=O)N[C@@H](CCC(=O)O)C(=O)N[C@@H](Cc1ccc(O)cc1)C(=O)N[C@@H](C)C(=O)N[C@@H](C)C(=O)N[C@@H](CCCNC(=N)N)C(=O)N[C@H](C(=O)N[C@@H](CCC(=O)O)C(=O)N[C@@H](C)C(=O)N[C@@H](CC(C)C)C(=O)N[C@H](C(=O)N[C@@H](CCCNC(=N)N)C(=O)N[C@@H](C)C(=O)N[C@@H](C)C(=O)N[C@@H](CCC(N)=O)C(=O)N[C@@H](CCC(=O)O)C(=O)N[C@@H](CCC(N)=O)C(=O)N[C@@H](CCC(N)=O)C(=O)N[C@@H](CCC(=O)O)C(=O)N[C@@H](CCCCN)C(=O)N[C@@H](CC(N)=O)C(=O)N[C@@H](CCC(=O)O)C(=O)N[C@@H](C)C(=O)N[C@@H](C)C(=O)N[C@@H](CC(C)C)C(=O)N[C@@H](CCCNC(=N)N)C(=O)N[C@@H](CCC(=O)O)C(=O)N[C@@H](CC(C)C)C(N)=O)[C@@H](C)CC)[C@@H](C)CC [Compound T-2635] |  |  |  |  |  |  | 0.004 | 
4970/4802: anti-IGF-1R IgG1: wt light chain 4802, heavy chain 4970 with T-651 conjugated C-terminally via linker SEQ ID NO: 11 (GGGGSGGGGSGGGGSGGNMTWMEWDREINNYTSLIHSLIEESQNQQEKNEQELL; also: fused C-terminally to heavy chain of anti-IGF-1R IgG1) | 20 | 9.11e+10 | 11 | 1.01e+06 | 1.11e-05 | 15 |  | 
enfuvirtide |  |  |  |  |  |  |  | 0.38
4972/4802: anti-IGF-1R IgG1: wt light chain 4802, heavy chain 4972 with T-2635 conjugated C-terminally via linker SEQ ID NO: 11 (GGGGSGGGGSGGGGSGGTTWEAWDRAIAEYAARIEALIRAAQEQQEKNEAALREL; also: fused C-terminally to heavy chain of anti-IGF-1R IgG1) | 43 | 1.01e+10 | 98.7 | 786000 | 7.76e-05 | 27 |  | 
